Numbering of substitutions follows the chain as printed.

This passage reports Kd results from patent US20260167699A1 (Chugai, published 2026).

The assay concerns the target T1, FcγRIIIaV (human, UniProt P08637 17-208).
T1 construct: extracellular domain
Description: SPR (Biacore), antibody captured, FcγR as analyte, 1:1 Langmuir fit. A general note: SPR reads the build-up and loss of mass on a sensor chip optically.
Description: The antibody of interest was analyzed for its interaction with FcγR using a BiaCore™ T100, BiaCore™ A100, or BiaCore™ 4000 surface plasmon resonance system (GE Healthcare Japan Corp.). The running buffer used was HBS-EP+ (GE Healthcare Japan Corp.). The assay temperature was set to 25° C. The sensor chips used were: a chip prepared by immobilizing antigenic peptides onto Series S Sensor Chip CM5 (GE Healthcare Japan Corp.) by the amine coupling method; a chip prepared by immobilizing antigenic peptides biotinylated in advance onto Series S Sensor Chip SA (certified) (GE Healthcare Japan Corp.) through their interaction; a chip prepared by immobilizing protein L (ACTIGEN, BioVision, Inc.) onto Series S Sensor Chip CM5 (GE Healthcare Japan Corp.); and a chip prepared by immobilizing protein A/G (Thermo Fisher Scientific K.K.) onto Series S Sensor Chip CM5 (GE Healthcare Japan Corp.). The antibody of interest was captured onto any of these chips and allowed to interact with FcγR diluted with a running buffer. The antibody captured on the chip was washed off through the reaction of 10 mM glycine-HCl (pH 1.5) to regenerate the chip, which was repetitively used.

T1 sequence (P08637 other isoform, or with tags, fused parts or gaps): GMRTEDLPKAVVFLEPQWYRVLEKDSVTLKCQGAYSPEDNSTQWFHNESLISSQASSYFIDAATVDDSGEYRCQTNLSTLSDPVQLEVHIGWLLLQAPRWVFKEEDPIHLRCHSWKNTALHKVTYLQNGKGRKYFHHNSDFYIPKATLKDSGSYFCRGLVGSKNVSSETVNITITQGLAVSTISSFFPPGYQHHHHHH

B1: HI076-L2-GS12 (antibody, human IgG1, kappa)
heavy 1: QDQLVQSGAEVKKPGASVKVSCKASGFNIKDTYIQWVRQAPGQGLEWMGRIDPLRKQTKYREKFEGRVTITADTSTNTAYMELSSLRSEDTAVYYCVRSGREFDYWGQGTLVTVSSASTKGPSVFPLAPSSKSTSGGTAALGCLVKDYFPEPVTVSWNSGALTSGVHTFPAVLQSSGLYSLSSVVTVPSSSLGTQTYICNVNHKPSNTKVDKKVEPKSCDKTHTCPPCPAPELLGGPSVFLFPPKPKDTLMISRTPEVTCVVVDVGGGSGGGSGGGSVKFNWYVDGVEVHNAKTKPREEQYNSTYRVVSVLTVLHQDWLNGKEYKCKVSNDALPMPIEETISKAKGQPREPQVYTLPPSRCELTKNQVSLSCAVKGFYPSDIAVEWESNGQPENNYKTTPPVLDSDGSFFLVSKLTVDKSRWQQGNVFSCSVMHEALHNHYTQKSLSLSP
heavy 2: QDQLVQSGAEVKKPGASVKVSCKASGFNIKDTYIQWVRQAPGQGLEWMGRIDPLRKQTKYREKFEGRVTITADTSTNTAYMELSSLRSEDTAVYYCVRSGREFDYWGQGTLVTVSSASTKGPSVFPLAPSSKSTSGGTAALGCLVKDYFPEPVTVSWNSGALTSGVHTFPAVLQSSGLYSLSSVVTVPSSSLGTQTYICNVNHKPSNTKVDKKVEPKSCDKTHTCPPCPAPEYQWGPMVFLFPPKPKDTLMISRTPEVTCVVVDVSDEEPEVKFNWYVDGVEVHNAKTKPREEQYNATYRVVSVLTVLHQDWLNGKEYKCKVSNKALPAPIEKTISKAKGQPREPQVCTLPPSRDELTKNQVSLWCLVKGFYPSDIAVEWESNGQPENNYKTTPPVLDSDGSFFLYSKLTVDKSRWQQGNVFSCSVMHEALHNHYTQKSLSLSP
light: DIQMTQSPSSLSASVGDRVTITCRASQDIHKYIAWYQQKPGQAPRLLIQYTSTLQPGVPSRFSGSGSGTDYTFTISSLQPEDIATYYCLQYEQLRTFGGGTKVEIKRTVAAPSVFIFPPSDEQLKSGTASVVCLLNNFYPREAKVQWKVDNALQSGNSQESVTEQDSKDSTYSLSSTLTLSKADYEKHKVYACEVTHQGLSSPVTKSFNRGEC
notes: heterodimerized anti-EREG antibody: altered H240-Hl076 chain (Gly/Ser peptide in loop) with H240-Kn125 and L73-k0; also called Hl076-L2-GS12_2
B1: binding was characterised by a dissociation constant (Kd) of 2.8 nM.

B2: HI076-L3-3 (antibody, human IgG1, kappa)
heavy 1: QDQLVQSGAEVKKPGASVKVSCKASGFNIKDTYIQWVRQAPGQGLEWMGRIDPLRKQTKYREKFEGRVTITADTSTNTAYMELSSLRSEDTAVYYCVRSGREFDYWGQGTLVTVSSASTKGPSVFPLAPSSKSTSGGTAALGCLVKDYFPEPVTVSWNSGALTSGVHTFPAVLQSSGLYSLSSVVTVPSSSLGTQTYICNVNHKPSNTKVDKKVEPKSCDKTHTCPPCPAPELLGGPSVFLFPPKPKDTLMISRTPEVTCVVVDVSHEEPEVKFNWYVDGVEVHNAKTKPREEQYNSTGGSYRVVSVLTVLHQDWLNGKEYKCKVSNDALPMPIEETISKAKGQPREPQVYTLPPSRCELTKNQVSLSCAVKGFYPSDIAVEWESNGQPENNYKTTPPVLDSDGSFFLVSKLTVDKSRWQQGNVFSCSVMHEALHNHYTQKSLSLSP
heavy 2: B1 heavy 2
light: B1 light
notes: heterodimerized anti-EREG antibody: altered H240-Hl076 chain (Gly/Ser peptide in loop) with H240-Kn125 and L73-k0; also called Hl076-L3-3
On to B2, for which the Kd (commonly a measure of binding affinity in units of concentration) stood at 2.9 nM. The Kd values of the last two molecules are within 1.5-fold of each other.

B3: Kn125-L4-GS11 (antibody, human IgG1, kappa)
heavy 1: QDQLVQSGAEVKKPGASVKVSCKASGFNIKDTYIQWVRQAPGQGLEWMGRIDPLRKQTKYREKFEGRVTITADTSTNTAYMELSSLRSEDTAVYYCVRSGREFDYWGQGTLVTVSSASTKGPSVFPLAPSSKSTSGGTAALGCLVKDYFPEPVTVSWNSGALTSGVHTFPAVLQSSGLYSLSSVVTVPSSSLGTQTYICNVNHKPSNTKVDKKVEPKSCDKTHTCPPCPAPELLGGPSVFLFPPKPKDTLMISRTPEVTCVVVDVSHEEPEVKFNWYVDGVEVHNAKTKPREEQYNSTYRVVSVLTVLHQDWLNGKEYKCKVSNDALPMPIEETISKAKGQPREPQVYTLPPSRCELTKNQVSLSCAVKGFYPSDIAVEWESNGQPENNYKTTPPVLDSDGSFFLVSKLTVDKSRWQQGNVFSCSVMHEALHNHYTQKSLSLSP
heavy 2: QDQLVQSGAEVKKPGASVKVSCKASGFNIKDTYIQWVRQAPGQGLEWMGRIDPLRKQTKYREKFEGRVTITADTSTNTAYMELSSLRSEDTAVYYCVRSGREFDYWGQGTLVTVSSASTKGPSVFPLAPSSKSTSGGTAALGCLVKDYFPEPVTVSWNSGALTSGVHTFPAVLQSSGLYSLSSVVTVPSSSLGTQTYICNVNHKPSNTKVDKKVEPKSCDKTHTCPPCPAPEYQWGPMVFLFPPKPKDTLMISRTPEVTCVVVDVSDEEPEVKFNWYVDGVEVHNAKTKPREEQYNATYRVVSVLTVLHQDWLNGKEYKCKVSNGGSGGGSGGGSPIEKTISKAKGQPREPQVCTLPPSRDELTKNQVSLWCLVKGFYPSDIAVEWESNGQPENNYKTTPPVLDSDGSFFLYSKLTVDKSRWQQGNVFSCSVMHEALHNHYTQKSLSLSP
light: B1 light
notes: heterodimerized anti-EREG antibody: altered H240-Kn125 chain (Gly/Ser peptide in loop) with H240-Hl076 and L73-k0
As for B3, binding was put at a Kd of 1.5 nM.

B4: Kn125-L4-GS7 (antibody, human IgG1, kappa)
heavy 1: B3 heavy 1
heavy 2: QDQLVQSGAEVKKPGASVKVSCKASGFNIKDTYIQWVRQAPGQGLEWMGRIDPLRKQTKYREKFEGRVTITADTSTNTAYMELSSLRSEDTAVYYCVRSGREFDYWGQGTLVTVSSASTKGPSVFPLAPSSKSTSGGTAALGCLVKDYFPEPVTVSWNSGALTSGVHTFPAVLQSSGLYSLSSVVTVPSSSLGTQTYICNVNHKPSNTKVDKKVEPKSCDKTHTCPPCPAPEYQWGPMVFLFPPKPKDTLMISRTPEVTCVVVDVSDEEPEVKFNWYVDGVEVHNAKTKPREEQYNATYRVVSVLTVLHQDWLNGKEYKCKVSNGGSGGGSPIEKTISKAKGQPREPQVCTLPPSRDELTKNQVSLWCLVKGFYPSDIAVEWESNGQPENNYKTTPPVLDSDGSFFLYSKLTVDKSRWQQGNVFSCSVMHEALHNHYTQKSLSLSP
light: B1 light
notes: as for B3
In turn, B4 returned a Kd of 2 nM.

B5: HI076-L3-6 (antibody, human IgG1, kappa)
heavy 1: QDQLVQSGAEVKKPGASVKVSCKASGFNIKDTYIQWVRQAPGQGLEWMGRIDPLRKQTKYREKFEGRVTITADTSTNTAYMELSSLRSEDTAVYYCVRSGREFDYWGQGTLVTVSSASTKGPSVFPLAPSSKSTSGGTAALGCLVKDYFPEPVTVSWNSGALTSGVHTFPAVLQSSGLYSLSSVVTVPSSSLGTQTYICNVNHKPSNTKVDKKVEPKSCDKTHTCPPCPAPELLGGPSVFLFPPKPKDTLMISRTPEVTCVVVDVSHEEPEVKFNWYVDGVEVHNAKTKPREEQYNSTGGSGGSYRVVSVLTVLHQDWLNGKEYKCKVSNDALPMPIEETISKAKGQPREPQVYTLPPSRCELTKNQVSLSCAVKGFYPSDIAVEWESNGQPENNYKTTPPVLDSDGSFFLVSKLTVDKSRWQQGNVFSCSVMHEALHNHYTQKSLSLSP
heavy 2: B1 heavy 2
light: B1 light
notes: heterodimerized anti-EREG antibody: altered H240-Hl076 chain (Gly/Ser peptide in loop) with H240-Kn125 and L73-k0; also called Hl076-L3-6
B5: the Kd turned out to be 7.2 nM.

B6: Kn125-L2a-3 (antibody, human IgG1, kappa)
heavy 1: B3 heavy 1
heavy 2: QDQLVQSGAEVKKPGASVKVSCKASGFNIKDTYIQWVRQAPGQGLEWMGRIDPLRKQTKYREKFEGRVTITADTSTNTAYMELSSLRSEDTAVYYCVRSGREFDYWGQGTLVTVSSASTKGPSVFPLAPSSKSTSGGTAALGCLVKDYFPEPVTVSWNSGALTSGVHTFPAVLQSSGLYSLSSVVTVPSSSLGTQTYICNVNHKPSNTKVDKKVEPKSCDKTHTCPPCPAPEYQWGPMVFLFPPKPKDTLMISRTPEVTCVVVDVSDEGGSEPEVKFNWYVDGVEVHNAKTKPREEQYNATYRVVSVLTVLHQDWLNGKEYKCKVSNKALPAPIEKTISKAKGQPREPQVCTLPPSRDELTKNQVSLWCLVKGFYPSDIAVEWESNGQPENNYKTTPPVLDSDGSFFLYSKLTVDKSRWQQGNVFSCSVMHEALHNHYTQKSLSLSP
light: B1 light
notes: as for B3
B6: the Kd came to 10 nM.

B7: HI076-L2-3 (antibody, human IgG1, kappa)
heavy 1: QDQLVQSGAEVKKPGASVKVSCKASGFNIKDTYIQWVRQAPGQGLEWMGRIDPLRKQTKYREKFEGRVTITADTSTNTAYMELSSLRSEDTAVYYCVRSGREFDYWGQGTLVTVSSASTKGPSVFPLAPSSKSTSGGTAALGCLVKDYFPEPVTVSWNSGALTSGVHTFPAVLQSSGLYSLSSVVTVPSSSLGTQTYICNVNHKPSNTKVDKKVEPKSCDKTHTCPPCPAPELLGGPSVFLFPPKPKDTLMISRTPEVTCVVVDVSHGGSEEPEVKFNWYVDGVEVHNAKTKPREEQYNSTYRVVSVLTVLHQDWLNGKEYKCKVSNDALPMPIEETISKAKGQPREPQVYTLPPSRCELTKNQVSLSCAVKGFYPSDIAVEWESNGQPENNYKTTPPVLDSDGSFFLVSKLTVDKSRWQQGNVFSCSVMHEALHNHYTQKSLSLSP
heavy 2: B1 heavy 2
light: B1 light
notes: heterodimerized anti-EREG antibody: altered H240-Hl076 chain (Gly/Ser peptide in loop) with H240-Kn125 and L73-k0; also called Hl076-L2-3
B7 had a Kd of 2.3 nM.

B8: HI076-L2-9 (antibody, human IgG1, kappa)
heavy 1: QDQLVQSGAEVKKPGASVKVSCKASGFNIKDTYIQWVRQAPGQGLEWMGRIDPLRKQTKYREKFEGRVTITADTSTNTAYMELSSLRSEDTAVYYCVRSGREFDYWGQGTLVTVSSASTKGPSVFPLAPSSKSTSGGTAALGCLVKDYFPEPVTVSWNSGALTSGVHTFPAVLQSSGLYSLSSVVTVPSSSLGTQTYICNVNHKPSNTKVDKKVEPKSCDKTHTCPPCPAPELLGGPSVFLFPPKPKDTLMISRTPEVTCVVVDVSHGGSGGSGGSEEPEVKFNWYVDGVEVHNAKTKPREEQYNSTYRVVSVLTVLHQDWLNGKEYKCKVSNDALPMPIEETISKAKGQPREPQVYTLPPSRCELTKNQVSLSCAVKGFYPSDIAVEWESNGQPENNYKTTPPVLDSDGSFFLVSKLTVDKSRWQQGNVFSCSVMHEALHNHYTQKSLSLSP
heavy 2: B1 heavy 2
light: B1 light
notes: heterodimerized anti-EREG antibody: altered H240-Hl076 chain (Gly/Ser peptide in loop) with H240-Kn125 and L73-k0; also called Hl076-L2-9
Consider B8, for which the Kd is 2.4 nM. The Kd values of the last two molecules are within 1.5-fold of each other.

B9: HI076-L3-9 (antibody, human IgG1, kappa)
heavy 1: QDQLVQSGAEVKKPGASVKVSCKASGFNIKDTYIQWVRQAPGQGLEWMGRIDPLRKQTKYREKFEGRVTITADTSTNTAYMELSSLRSEDTAVYYCVRSGREFDYWGQGTLVTVSSASTKGPSVFPLAPSSKSTSGGTAALGCLVKDYFPEPVTVSWNSGALTSGVHTFPAVLQSSGLYSLSSVVTVPSSSLGTQTYICNVNHKPSNTKVDKKVEPKSCDKTHTCPPCPAPELLGGPSVFLFPPKPKDTLMISRTPEVTCVVVDVSHEEPEVKFNWYVDGVEVHNAKTKPREEQYNSTGGSGGSGGSYRVVSVLTVLHQDWLNGKEYKCKVSNDALPMPIEETISKAKGQPREPQVYTLPPSRCELTKNQVSLSCAVKGFYPSDIAVEWESNGQPENNYKTTPPVLDSDGSFFLVSKLTVDKSRWQQGNVFSCSVMHEALHNHYTQKSLSLSP
heavy 2: B1 heavy 2
light: B1 light
notes: heterodimerized anti-EREG antibody: altered H240-Hl076 chain (Gly/Ser peptide in loop) with H240-Kn125 and L73-k0; also called Hl076-L3-9
Regarding B9, binding was put at a Kd of 7.3 nM.

B10: HI076-L2-6 (antibody, human IgG1, kappa)
heavy 1: B1 heavy 1 with G266S, G267H, S269G, G270S, G274E, G275E, G276P, S277E
heavy 2: B1 heavy 2
light: B1 light
notes: heterodimerized anti-EREG antibody: altered H240-Hl076 chain (Gly/Ser peptide in loop) with H240-Kn125 and L73-k0; also called Hl076-L2-6
B10 registered a Kd of 1.9 nM.

B11: Kn125-L4-6 (antibody, human IgG1, kappa)
heavy 1: B3 heavy 1
heavy 2: B3 heavy 2 with G325K, S327G, G328S, G332A, G333L, G334P, S335A
light: B1 light
notes: as for B3
With B11, binding was put at a Kd of 1.7 nM.
